Assay results from US10202584B2, “Red-shifted luciferase-luciferin pairs for enhanced bioluminescence” (The Regents of the University of California, priority 2016, dated 2019).

Experiments:
[1] = substrate: O=c1c(Cc2ccccc2)nc2c([Se]c3ccccc3)[nH]c(-c3ccccc3)cn1-2; assay: purified protein, by the assay type; settings: other: apparent, 100 pM enzyme, substrate 0.78 to 50 μM, assay buffer pH 6.0, mean ± s.d., n = 3, 37.0 °C
Method: FIG. 8 is a panel of graphs showing substrate titrations with pure enzymes to determine apparent Michaelis constants (Km). Titrations using new luciferases (8a) and Fluc (8b) are shown. The final concentrations of all enzymes were 100 pM. Substrate concentrations varied from 0.78 to 50 μM, and peak bioluminescence intensities at individual substrate concentrations were used to fit the Michaelis-Menten equation. Data are shown as mean and s.d. of three independent experiments.
Luciferases were expressed and purified as His6-tagged fusion proteins (FIG. 18).
A Synergy Mx Microplate Reader (BioTek) was used for all in vitro bioluminescence characterizations. For kinetics measurements, no emission filter or monochromator was used. 50 μL of luciferin substrates in the assay buffer (1 mM CDTA, 0.5% Tergitol NP-40, 0.05% Antifoam 204, 150 mM KCl, 100 mM IVIES pH 6.0, 1 mM DTT, and 35 mM thiourea) was injected into the wells of white 96-well plates containing 50 μL of pure enzymes in the same assay buffer. The final concentrations of all enzymes and substrates were 100 pM and 30 μM, respectively. Measurements were taken every 60 s post-injection (1-s integration and 10-s shaking during intervals). FLuc bioluminescence assays were performed similarly, except the assay buffer contained 30 mM MOPS, pH 7.0, 1.5 mM ATP, and 5 mM MgSO4.

[2] = substrate: O=c1c(Cc2ccccc2)nc2c(-c3ccccc3)[nH]c(-c3ccccc3)cn1-2; assay: purified protein, by the assay type; settings: other: apparent, 100 pM enzyme, substrate 0.78 to 50 μM, assay buffer pH 6.0, mean ± s.d., n = 3, 37.0 °C

Protein	Km [1]	kcat [1]	Km [2]	kcat [2]
yeLuc, NanoLuc variant yeLuc0.8-F1L/A14D/V27L/Q69R/R112Q/L142R (yeLuc0.8 = NanoLuc-L18Q/D19A/S28T/C164S), SEQ ID NO: 4 (Oplophorus gracilirostris; … (protein) MVLTLEDFVGDWRQTDGYNQAQVLEQGGLTSLFQNLGVSVTPIQRIVLSGENGLKIDIHVIIPYEGLSGDRMGQIEKIFKVVYPVDDHHFKVILHYGTLVIDGVTPNMIDYFGQPYEGIAVFDGKKITVTGTLWNGNKIIDERRINPDGSLLFRVTINGVTGWRLSERILA	11.9 ± 0.9 µM	175 ± 5 s⁻¹	–	–
teLuc, NanoLuc variant D19S/D85N/C164H, SEQ ID NO: 2 (Oplophorus gracilirostris; … (protein) MVFTLEDFVGDWRQTAGYNLSQVLEQGGVSSLFQNLGVSVTPIQRIVLSGENGLKIDIHVIIPYEGLSGDQMGQIEKIFKVVYPVDNHHFKVILHYGTLVIDGVTPNMIDYFGRPYEGIAVFDGKKITVTGTLWNGNKIIDERLINPDGSLLFRVTINGVTGWRLHERILA	–	–	10.2 ± 0.4 µM	88.1 ± 0.1 s⁻¹
yeLuc0.8, NanoLuc variant L18Q/D19A/S28T/C164S, SEQ ID NO: 3 (Oplophorus gracilirostris; … (protein) MVFTLEDFVGDWRQTAGYNQAQVLEQGGVTSLFQNLGVSVTPIQRIVLSGENGLKIDIHVIIPYEGLSGDQMGQIEKIFKVVYPVDDHHFKVILHYGTLVIDGVTPNMIDYFGRPYEGIAVFDGKKITVTGTLWNGNKIIDERLINPDGSLLFRVTINGVTGWRLSERILA	6.3 ± 0.5 µM	–	–	–
Antares2 (Antares with NanoLuc replaced by teLuc, D19S/D85N/C164H; fused to CyOFP1) (Oplophorus gracilirostris; … (protein) MVFTLEDFVGDWRQTAGYNLSQVLEQGGVSSLFQNLGVSVTPIQRIVLSGENGLKIDIHVIIPYEGLSGDQMGQIEKIFKVVYPVDNHHFKVILHYGTLVIDGVTPNMIDYFGRPYEGIAVFDGKKITVTGTLWNGNKIIDERLINPDGSLLFRVTINGVTGWRLHERILA	–	–	9.7 ± 0.2 µM	86.1 ± 0.7 s⁻¹
